The results in this text go back to publication PMC12384393.

Experiment [1] addresses equine LH/CGR-N50Q (equine).
The target in experiment [2] is equine LH/CGR-N195Q (equine).
The target of experiment [3] is equine LH/CGR-N299Q (equine).
Experiment [4] has as its target equine lutropin hormone/choriogonadotropin receptor, wild type (equine LH/CGR-WT) (equine).
For experiment [5], the target named is equine LH/CGR-N313Q (equine).
Experiment [6] has as its target equine LH/CGR-N291Q (equine).
The target of experiment [7] is equine LH/CGR-N174Q (equine).
Experiment [8] addresses equine LH/CGR-N99Q (equine).
For experiment [9], the target named is equine LH/CGR-N50Q (equine). The source holds these as a separate data set.
Experiment [10] deals with equine LH/CGR-N195Q (equine). This is another data set of the same source.
Experiment [11] concerns the target equine LH/CGR-N299Q (equine). The source holds these as a separate data set.
For experiment [12], the target named is equine lutropin hormone/choriogonadotropin receptor, wild type (equine LH/CGR-WT) (equine). This is another data set of the same source.
The target in experiment [13] is equine LH/CGR-N313Q (equine). This is another data set of the same source.
Experiment [14] deals with equine LH/CGR-N291Q (equine). The source holds these as a separate data set.
The target in experiment [15] is equine LH/CGR-N174Q (equine). The source holds these as a separate data set.
In experiment [16] the target is equine LH/CGR-N99Q (equine). The source holds these as a separate data set.

For “recombinant equine chorionic gonadotropin (rec-eCG) (from UniProt P08751 21-169; P01220 25-120) (ligand)”, the EC50 of the cAMP response (HTRF) of transfected CHO-K1 cells stimulated with rec-eCG for 30 min was determined as 0.0177 µg/mL in experiment [1]; 0.136 µg/mL in [2]; 0.0269 µg/mL in experiment [3]; 0.0237 µg/mL in experiment [4]; 0.0347 µg/mL in experiment [5]; 0.0184 µg/mL in [6]. Besides, the results for the EC50 of the cAMP response (HTRF) of transfected CHO-K1 cells stimulated with rec-eCG for 30 min in experiment [7] and in experiment [8] were 0.179 µg/mL and 0.0241 µg/mL, respectively. Also, the t1/2 of the loss of cell surface receptor (anti-VSVG ELISA on cells) after rec-eCG treatment, 0-120 min in [9] is 5.6 min; in [10], 31.4 min; in experiment [11] it was 12.8 min; in experiment [12], 5.6 min; in [13], 13.3 min; in experiment [14] it was 14.3 min. Moreover, the t1/2 of the loss of cell surface receptor (anti-VSVG ELISA on cells) after rec-eCG treatment, 0-120 min in experiment [15] is 3.3 min; in [16] it was 5.2 min.
